Test results reported in PMC4627693.

Tested on: Cys-Srctide (Biotin-ZZICGEFRRR)
Test: cross-linking

c-Src tyrosine kinase (recombinant)
percent conversion to crosslinked product: 40% conversion in 25 minutes
